Assay results taken from PMC9177958, “Structures of nonsense-mediated mRNA decay factors UPF3B and UPF3A in complex with UPF2 reveal molecular basis for competitive binding and for neurodevelopmental disorder-causing mutation” (Nucleic Acids Research, 2022).

T1: UPF3B-WT (human, UniProt Q9BZI7-2 1-470)
T1 sequence: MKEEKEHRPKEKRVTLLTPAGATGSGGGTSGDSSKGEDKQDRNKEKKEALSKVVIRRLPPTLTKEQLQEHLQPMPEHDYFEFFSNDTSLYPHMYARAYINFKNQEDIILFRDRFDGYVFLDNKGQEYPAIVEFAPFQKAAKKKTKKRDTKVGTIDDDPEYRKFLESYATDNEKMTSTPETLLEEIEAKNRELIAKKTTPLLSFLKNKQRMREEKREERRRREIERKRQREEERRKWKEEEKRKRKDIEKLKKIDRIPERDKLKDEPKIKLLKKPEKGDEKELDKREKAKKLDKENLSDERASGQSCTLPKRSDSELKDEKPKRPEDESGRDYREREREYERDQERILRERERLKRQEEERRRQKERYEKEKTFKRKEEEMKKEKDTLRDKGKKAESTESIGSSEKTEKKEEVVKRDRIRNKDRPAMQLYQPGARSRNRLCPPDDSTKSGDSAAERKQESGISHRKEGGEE

T2: UPF3A-WT (human, UniProt Q9H1J1 1-476)
T2 construct: UPF3A, human, full length; The cloning of UPF3A-WT is not described in the methods; also called full-length UPF3A-WT; source: insect cells (MultiBac), purified (Ni-NTA, TEV, reverse IMAC, ion exchange)
T2 sequence (looked up): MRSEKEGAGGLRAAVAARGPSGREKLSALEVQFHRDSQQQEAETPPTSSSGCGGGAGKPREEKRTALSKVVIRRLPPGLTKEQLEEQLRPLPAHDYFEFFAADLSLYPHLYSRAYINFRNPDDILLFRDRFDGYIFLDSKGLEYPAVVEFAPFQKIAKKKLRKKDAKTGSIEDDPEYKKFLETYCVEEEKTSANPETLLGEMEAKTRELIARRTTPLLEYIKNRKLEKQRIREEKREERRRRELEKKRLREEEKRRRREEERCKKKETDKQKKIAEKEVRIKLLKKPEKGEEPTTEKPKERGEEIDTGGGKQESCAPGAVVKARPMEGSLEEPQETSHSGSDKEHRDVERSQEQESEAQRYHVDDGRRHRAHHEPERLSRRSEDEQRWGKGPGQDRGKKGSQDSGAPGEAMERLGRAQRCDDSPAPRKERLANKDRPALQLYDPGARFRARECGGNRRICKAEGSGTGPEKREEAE

T3: UPF3B-WT (residues 1–470) (human, UniProt Q9BZI7-2 1-470)
T3 construct: UPF3B, human, isoform 2 (the predominant form found in cells), residues 1-470, printed length 470; also called full-length UPF3B; source: insect cells (MultiBac), purified (Ni-NTA, TEV, reverse IMAC, ion exchange)
T3 sequence (looked up): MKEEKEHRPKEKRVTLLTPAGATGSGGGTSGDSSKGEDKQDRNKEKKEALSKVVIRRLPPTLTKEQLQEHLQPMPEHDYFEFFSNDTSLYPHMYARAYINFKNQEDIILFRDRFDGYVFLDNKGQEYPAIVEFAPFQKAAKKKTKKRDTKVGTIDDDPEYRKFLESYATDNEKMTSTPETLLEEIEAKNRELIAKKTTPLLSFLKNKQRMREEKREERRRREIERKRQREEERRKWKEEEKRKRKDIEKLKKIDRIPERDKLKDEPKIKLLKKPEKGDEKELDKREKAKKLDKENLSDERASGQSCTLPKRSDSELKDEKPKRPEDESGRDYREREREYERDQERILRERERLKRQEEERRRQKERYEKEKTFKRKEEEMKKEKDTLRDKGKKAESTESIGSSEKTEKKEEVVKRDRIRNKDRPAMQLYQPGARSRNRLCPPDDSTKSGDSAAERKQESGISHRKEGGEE

B1: biotinylated Avi-UPF2-MIF4GIII (domain or fragment, UniProt Q9HAU5 761-1054, looked up)
chain: EKTVKKKRPPLQEYVRKLLYKDLSKVTTEKVLRQMRKLPWQDQEVKDYVICCMINIWNVKYNSIHCVANLLAGLVLYQEDVGIHVVDGVLEDIRLGMEVNQPKFNQRRISSAKFLGELYNYRMVESAVIFRTLYSFTSFGVNPDGSPSSLDPPEHLFRIRLVCTILDTCGQYFDRGSSKRKLDCFLVYFQRYVWWKKSLEVWTKDHPFPIDIDYMISDTLELLRPKIKLCNSLEESIRQVQDLEREFLIKLGLVNDKDSKDSMTEGENLEEDEEEEEGGAETEEQSGNESEVNE
modifications: biotin on the Avi tag (BirA)
notes: UPF2, third middle-domain of eukaryotic initiation factor 4G (MIF4GIII), residues 761-1054; Avi tag added by site-directed mutagenesis to UPF2-MIF4GIII; also called immobilized UPF2-MIF4GIII; source: E. coli BL21 Rosetta2(DE3), purified (Ni-NTA, TEV, reverse IMAC, ion exchange); biotinylated with BirA, SEC

How the values were obtained:
UPF3B-WT = biological target: T1, UPF3B-WT; assay: fluorescence anisotropy; FA: 5 nM probe, 150 mM NaCl, 25 mM HEPES pH 7.45, 1 mM TCEP, 20 C; EMSA: 250 nM probe, 25 mM HEPES pH 7.45, 2 mM MgCl2, 150 mM NaCl, 0.5 mM TCEP, on ice; conditions: protein: recombinant, tags: 6xHis removed by TEV
[1] = biological target: B1; assay: SPR; 350 RU biotinylated Avi-UPF2-MIF4GIII immobilised on an SA chip (Biacore T200); UPF3B and UPF3A constructs injected; 15°C; 300 mM NaCl, 25 mM HEPES pH 7.4, 0.25 mM TCEP, 0.05% Tween-20; global fit, 1:1 binding model; conditions: both partners purified
UPF3A-WT = biological target: T2, UPF3A-WT; assay: as above; conditions: both partners purified
[2] = biological target: T3, UPF3B-WT (residues 1–470); assay: as above; conditions: both partners purified

Binder	Kd [1] [nM]	other results
24mer dsDNA (dsDNA) DNA 1: CCCTGAGCTGACGCAGCACCTGGG DNA 2: CCCAGGTGCTGCGTCAGCTCAGGG	–	Kd (UPF3B-WT; label: 5' HEX on strand 1, blunt): 61 nM
UPF3B-41–189 (domain or fragment, human, UniProt Q9BZI7 41-189, looked up, UPF3B, human, RRM-L and N-terminal part of the middle-domain (NOPS-L), residues 41-189; also called UPF3B-1–189 (as printed once); source: E. coli BL21 Rosetta2(DE3), purified (Ni-NTA, TEV, reverse IMAC, ion exchange)) DRNKEKKEALSKVVIRRLPPTLTKEQLQEHLQPMPEHDYFEFFSNDTSLYPHMYARAYINFKNQEDIILFRDRFDGYVFLDNKGQEYPAIVEFAPFQKAAKKKTKKRDTKVGTIDDDPEYRKFLESYATDNEKMTSTPETLLEEIEAKN	3.6	–
UPF3B-41–189 Y160D + Y167D (domain or fragment, human, UniProt Q9BZI7 41-189, looked up, UPF3B, human, residues 41-189 with Y160D and Y167D; source: E. coli BL21 Rosetta2(DE3), purified (Ni-NTA, TEV, reverse IMAC, ion exchange)) DRNKEKKEALSKVVIRRLPPTLTKEQLQEHLQPMPEHDYFEFFSNDTSLYPHMYARAYINFKNQEDIILFRDRFDGYVFLDNKGQEYPAIVEFAPFQKAAKKKTKKRDTKVGTIDDDPEDRKFLESDATDNEKMTSTPETLLEEIEAKN	~130	–
UPF3B-41–189 F163A (domain or fragment, human, UniProt Q9BZI7 41-189, looked up, UPF3B, human, residues 41-189 with F163A; it is named in the results; source: E. coli BL21 Rosetta2(DE3), purified (Ni-NTA, TEV, reverse IMAC, ion exchange)) DRNKEKKEALSKVVIRRLPPTLTKEQLQEHLQPMPEHDYFEFFSNDTSLYPHMYARAYINFKNQEDIILFRDRFDGYVFLDNKGQEYPAIVEFAPFQKAAKKKTKKRDTKVGTIDDDPEYRKALESYATDNEKMTSTPETLLEEIEAKN	90	–
UPF3B-41–189 Y167D (domain or fragment, human, UniProt Q9BZI7 41-189, looked up, UPF3B, human, residues 41-189 with Y167D; also called Y167D (phosphomimetic); source: E. coli BL21 Rosetta2(DE3), purified (Ni-NTA, TEV, reverse IMAC, ion exchange)) DRNKEKKEALSKVVIRRLPPTLTKEQLQEHLQPMPEHDYFEFFSNDTSLYPHMYARAYINFKNQEDIILFRDRFDGYVFLDNKGQEYPAIVEFAPFQKAAKKKTKKRDTKVGTIDDDPEYRKFLESDATDNEKMTSTPETLLEEIEAKN	7.4	–
UPF3B-41–189 Y167A (domain or fragment, human, UniProt Q9BZI7 41-189, looked up, UPF3B, human, residues 41-189 with Y167A; source: E. coli BL21 Rosetta2(DE3), purified (Ni-NTA, TEV, reverse IMAC, ion exchange)) DRNKEKKEALSKVVIRRLPPTLTKEQLQEHLQPMPEHDYFEFFSNDTSLYPHMYARAYINFKNQEDIILFRDRFDGYVFLDNKGQEYPAIVEFAPFQKAAKKKTKKRDTKVGTIDDDPEYRKFLESAATDNEKMTSTPETLLEEIEAKN	3.3	–
UPF3B-41–189 Y160A + Y167A (domain or fragment, human, UniProt Q9BZI7 41-189, looked up, UPF3B, human, residues 41-189 with Y160A and Y167A; source: E. coli BL21 Rosetta2(DE3), purified (Ni-NTA, TEV, reverse IMAC, ion exchange)) DRNKEKKEALSKVVIRRLPPTLTKEQLQEHLQPMPEHDYFEFFSNDTSLYPHMYARAYINFKNQEDIILFRDRFDGYVFLDNKGQEYPAIVEFAPFQKAAKKKTKKRDTKVGTIDDDPEARKFLESAATDNEKMTSTPETLLEEIEAKN	~130	–
UPF3B-41–189 Y160A (domain or fragment, human, UniProt Q9BZI7 41-189, looked up, UPF3B, human, residues 41-189 with Y160A; source: E. coli BL21 Rosetta2(DE3), purified (Ni-NTA, TEV, reverse IMAC, ion exchange)) DRNKEKKEALSKVVIRRLPPTLTKEQLQEHLQPMPEHDYFEFFSNDTSLYPHMYARAYINFKNQEDIILFRDRFDGYVFLDNKGQEYPAIVEFAPFQKAAKKKTKKRDTKVGTIDDDPEARKFLESYATDNEKMTSTPETLLEEIEAKN	88	–
UPF3B-41–189 Y160D (domain or fragment, human, UniProt Q9BZI7 41-189, looked up, UPF3B, human, residues 41-189 with the disease-causing (XLID) mutation Y160D; Y160D is a patient mutation and is also used as a phosphomimetic; also called UPF3B-Y160D; phosphomimetic/disease mutation; source: E. coli BL21 Rosetta2(DE3), purified (Ni-NTA, TEV, reverse IMAC, ion exchange)) DRNKEKKEALSKVVIRRLPPTLTKEQLQEHLQPMPEHDYFEFFSNDTSLYPHMYARAYINFKNQEDIILFRDRFDGYVFLDNKGQEYPAIVEFAPFQKAAKKKTKKRDTKVGTIDDDPEDRKFLESYATDNEKMTSTPETLLEEIEAKN	140	–
UPF3B-41–143 (domain or fragment, human, UniProt Q9BZI7 41-143, looked up, UPF3B, human, RRM-L domain, residues 41-143; also called RRM-L alone; RRM-L only; source: E. coli BL21 Rosetta2(DE3), purified (Ni-NTA, TEV, reverse IMAC, ion exchange)) DRNKEKKEALSKVVIRRLPPTLTKEQLQEHLQPMPEHDYFEFFSNDTSLYPHMYARAYINFKNQEDIILFRDRFDGYVFLDNKGQEYPAIVEFAPFQKAAKKK	720	–
CCCTGAGCTGACGCAGCACCTGGG (ssDNA) [24mer ssDNA]	–	Kd (UPF3B-WT; label: 5' HEX, single strand): 190 nM
UPF3A-58–206-Iso1 (domain or fragment, human, UniProt Q9H1J1 58-206, looked up, Codon-optimized for E. coli, gene-synthesized; also called UPF3A-58–208 (as printed once); source: E. coli BL21 Rosetta2(DE3), purified (Ni-NTA, TEV, reverse IMAC, ion exchange)) KPREEKRTALSKVVIRRLPPGLTKEQLEEQLRPLPAHDYFEFFAADLSLYPHLYSRAYINFRNPDDILLFRDRFDGYIFLDSKGLEYPAVVEFAPFQKIAKKKLRKKDAKTGSIEDDPEYKKFLETYCVEEEKTSANPETLLGEMEAKT	0.22	–
UPF3A-58–206-RRM* A101S-A102N-L104T (domain or fragment, human, UniProt Q9H1J1 58-206, looked up, also called RRM* construct; source: E. coli BL21 Rosetta2(DE3), purified (Ni-NTA, TEV, reverse IMAC, ion exchange)) KPREEKRTALSKVVIRRLPPGLTKEQLEEQLRPLPAHDYFEFFSNDTSLYPHLYSRAYINFRNPDDILLFRDRFDGYIFLDSKGLEYPAVVEFAPFQKIAKKKLRKKDAKTGSIEDDPEYKKFLETYCVEEEKTSANPETLLGEMEAKT	0.77	–
UPF3A-58–206-NOPS* C185A-V186T-E187D (domain or fragment, human, UniProt Q9H1J1 58-206, looked up, also called NOPS* construct; source: E. coli BL21 Rosetta2(DE3), purified (Ni-NTA, TEV, reverse IMAC, ion exchange)) KPREEKRTALSKVVIRRLPPGLTKEQLEEQLRPLPAHDYFEFFAADLSLYPHLYSRAYINFRNPDDILLFRDRFDGYIFLDSKGLEYPAVVEFAPFQKIAKKKLRKKDAKTGSIEDDPEYKKFLETYATDEEKTSANPETLLGEMEAKT	2.6	–
B1	–	Kd (UPF3A-WT): 0.048 nM; Kd [2]: 0.47 nM
